{
  "source": "paper PMC2115937",
  "target": "epidermal growth factor receptor (EGF receptor kinase), rat liver (rat (endogenous in rat liver))",
  "test": "polyethylene glycol precipitation of receptor-bound radioligand",
  "data": [
    {"substance": "epidermal growth factor (EGF) (from UniProt P01132 977-1029) (ligand)", "values": [
      {"measurement": "percent of 125I-EGF in endosomes that is receptor bound (10 ug EGF injected)", "result": 77, "unit": "%"}
    ]}
  ]
}
